# “Also recorded” adds a separate entry of the source.
# B1: 7C6: monoclonal antibody from mice immunized with recombinant MICA α3 domain; parental mIgG2b; VH SEQ ID NO: 7, VL SEQ ID NO: 8 (antibody)
# VH: QIQLVQSGPELKKPGETVKVSCKASGYMFTNYAMNWVKQAPEKGLKWMGWINTHTGDPTYADDFKGRIAFSLETSASTAYLQINNLKNEDTATYFCVRTYGNYAMDYWGQGTSVTVSSAKTTAPSVYPLAPVCGDTTGSSVTLGCLVKGYFPEPVTLTWNSGSLSSGVHTFPAVLQSDLYTLSSSVTVTSS
# VL: DIQMTQTTSSLSASLGDRVTISCSASQDISNYLNWYQQKPDGTVKLLIYDTSILHLGVPSRFSGSGSGTDYSLTISNLEPEDIATYYCQQYSKFPRTFGGGTTLEIK
# modifications: mAb 7C6 heavy chain amino acid sequence; mAb 7C6 light chain amino acid sequence
# Assays:
# [1] = test system: CT26-MICA; experiment: CT26 metastasis model; format: in vivo, Balb/c mice; conditions: antibody days 1, 2, 7, 14; count day 21
# Experimental: (§1) Balb/c wild type mice were injected intravenously with 1×10^6 CT26-MICA, and treated with 7C6-mIgG2b or MPC-11 (isotype) administered intraperitoneally on days 1, 2, 7, and 14. Euthanasia was performed on day 21, followed by lung perfusion with 30% Indian ink through the trachea and fixation in Fekete's fixative. That procedure stains the lungs in black, while the metastases remain white, enabling counting of metastases under a stereomicroscope (24).
# as §1, with “stereomicroscope.” for “stereomicroscope (24).”
# [2] = test system: short-term human melanoma cell lines; experiment: MICA/MICB shedding by short-term human melanoma cell lines; format: cell-based; conditions: 24-72 hours
# Text: A375, HCT-116, SK-N-SH, K562, A2058, B16F10, CT26, and Neuro-2a cell lines were all obtained from American Type Culture Collection (ATCC). HEPG2 and MDA-MB-231 cell lines were kindly provided by Drs. Chandan Sharma and Martin Hemler, Dana-Farber Cancer Institute, Boston. The EL4 and RMA-S cell lines were generous gifts from Dr. Mark Smyth, QIMR Berghofer Medical Research Institute, Herston, Australia. The short-term human melanoma cell lines CY.21A-S1, CY36-S1, and CY048-S were obtained from patients following surgical resection of metastatic lesions as previously described (27). All cell lines were mycoplasma free, as tested by MycoProbe Mycoplasma Detection Kit (R&D Systems). Human and murine cell lines were cultivated in RPMI-1640 or DMEM media, respectively, supplemented with 10% fetal bovine serum (FBS), 1× Glutamax® (Gibco), and 1× Penicillin and Streptomycin (Gibco). […]
# Tumor cells (5×10^4 or 1×10^5 per well, depending on the cell line) were cultured for 24 to 72 hours in 96-well plates (flat-bottom plates for adherent cell lines, U-bottom plates for suspension cell lines). […] MICA or control antibodies were added at different concentrations, and shed MICA/B was then detected in supernatants by ELISA using the Human MICA ELISA kit (Ab59569, Abcam) or Human MICB DuoSet ELISA kit (DY1599, R&D Systems), using the procedures recommended by the manufacturers. […]
# [3] = test system: A375 human melanoma cell line; experiment: Dacarbazine combination with MICA/B antibody, A375 cells; format: cell-based
# [4] = test system: B16F10-MICA cells; experiment: B16F10 metastasis model in immunocompetent mice; format: in vivo, C57BL/6 mice
# Experimental: The B16F10 cells were transduced with the luciferase-based lentiviral vector to express MICA. B16F10-MICA cells (5×10^5) were injected intravenously into C57BL/6 mice through the tail vein. Fewer tumor cells (4×10^5) were injected into NK cell-deficient mice given that the absence of NK cells results in a very large number of metastases. 7C6 or isotype control antibodies (MPC-11 or C1184, BioXcell, which have mIgG2b and mIgG2a isotypes, respectively) were administered intraperitoneally on days 1, 2, 7 and 10 at a dose of 200 μg per mouse. Antibody blockade and depletion were performed as described previously (24). For antibody-based depletion of CD8 T cells or NK cells, 100 μg per mouse of anti-CD8 (5358, BioXcell), anti-NK1.1 (PK136, BioXcell), and anti-asialo(as)GM1 (Wako Chemicals) were given on days −1, 0, and 7. For antibody blockade, anti-NKG2D (HMG2D, BioXcell) or control IgG (MOPC-21) were given at 200 μg per mouse on days −1, 0, 5, 7 and 10. Blood samples were collected at multiple time points by retro-orbital bleeding under isoflurane anesthesia. Mice were euthanized by CO2 inhalation, lungs were perfused with PBS and fixed in formalin solution, and the number of superficial metastases was counted under a stereomicroscope. Histology was performed by the Rodent Histopathology Core of the Dana-Farber/Harvard Cancer Center using lungs that had not been perfused with PBS.
# Macrophages were depleted by intravenous injection of 0.2 ml clodronate liposomes (Encapsula NanoSciences LLC). In the humanized and B16F10-MICA metastasis models, 0.2 ml of clodronate liposomes or control liposomes were injected i.v. (on the same day of tumor cell inoculation and then once weekly).
molecule,measurement,setting,value
B1,activity against CT26-MICA lung metastases,[1],demonstrated efficacy in a lung metastasis model
same,MICA and MICB shedding by short-term human melanoma cell lines,[2],inhibited MICA and MICB shedding
same,"human NK cell killing of A375 cells, dacarbazine combination with MICA/B antibody","[3]; 30 mM dacarbazine, 10 μg/ml 7C6, 48 hours",is increased by dacarbazine combination with MICA/B antibody
same,MICA/B shedding (6D4-PE staining),"[3]; A375, 48 hours, 10 μg/ml antibody with dacarbazine",inhibited MICA/B shedding
same,shed MICA in serum,[4]; B16F10-MICA i.v. in C57BL/6 mice,undetectable; also recorded: reduced shed MICA in the sera
same,therapeutic activity against lung metastases after NK cell or CD8 T cell depletion,"[4]; anti-asGM1, anti-NK1.1 or anti-CD8β","NK cells, but not CD8 T cells, were essential for the therapeutic activity"
same,therapeutic activity in Prf1−/− and Ifng−/− mice,[4]; lung metastases day 14,therapeutic efficacy was lost in perforin (Prf1) but not IFNγ (Ifng) deficient mice; also recorded: Perforin but not interferon-γ expression is required for therapeutic activity

# From patent publication US12662540B2, “Compositions and methods for inhibition of MICA/B shedding” (DANA-FARBER CANCER INSTITUTE, INC., priority 2017, dated 2026)
